Measurements as given in patent US20170137467A1 (CHROMOTEK, published 2017).
Residue numbers refer to the chain shown, from its start. Square brackets hold non-standard residues; d marks the D form. GABA = NCCCC(=O)O

Assays:
Experiment in all cases: positional peptide library pulldown on immobilised Nb, LC-MS of supernatant; signal ratio to control GFP-Nb (1 = not captured, near 0 = captured)
BC2T P1Y = molecular target: T1, BC2T P1Y
T1 construct: positional scanning library member
T1 peptide: Ac-YDRKAAVSHWQQ-NH2
Summary of the method: (§1)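 Unbound peptide left in supernatant after 1 h pulldown in PBS/0.01% CHAPS measured by reversed-phase LC-MS (8–30% eluent B gradient, 20 min).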

BC2T V7T = molecular target: T2, BC2T V7T
T2 construct: positional scanning library member
T2 peptide: Ac-PDRKAATSHWQQ-NH2
Summary of the method: as §1

BC2T A6F = molecular target: T3, BC2T A6F
T3 construct: positional scanning library member
T3 peptide: Ac-PDRKAFVSHWQQ-NH2
Summary of the method: as §1

BC2T K4D = molecular target: T4, BC2T K4D
T4 construct: positional scanning library member
T4 peptide: Ac-PDRDAAVSHWQQ-NH2
Summary of the method: as §1

BC2T P1K = molecular target: T5, BC2T P1K
T5 construct: positional scanning library member
T5 peptide: Ac-KDRKAAVSHWQQ-NH2
Summary of the method: as §1

BC2T R3C(Abu) = molecular target: T6, BC2T R3C(Abu) (SMILES …)
T6 construct: positional scanning library member
T6 peptide: Ac-PD[GABA]KAAVSHWQQ-NH2
Summary of the method: as §1

BC2T A6D = molecular target: T7, BC2T A6D
T7 construct: positional scanning library member
T7 peptide: Ac-PDRKADVSHWQQ-NH2
Summary of the method: as §1

BC2T A6R = molecular target: T8, BC2T A6R
T8 construct: positional scanning library member
T8 peptide: Ac-PDRKARVSHWQQ-NH2
Summary of the method: as §1

BC2T P1S = molecular target: T9, BC2T P1S
T9 construct: positional scanning library member
T9 peptide: Ac-SDRKAAVSHWQQ-NH2
Summary of the method: as §1

BC2T D2P = molecular target: T10, BC2T D2P
T10 construct: positional scanning library member
T10 peptide: Ac-PPRKAAVSHWQQ-NH2
Summary of the method: as §1

BC2T A6W = molecular target: T11, BC2T A6W
T11 construct: positional scanning library member
T11 peptide: Ac-PDRKAWVSHWQQ-NH2
Summary of the method: as §1

BC2T A5E = molecular target: T12, BC2T A5E
T12 construct: positional scanning library member
T12 peptide: Ac-PDRKEAVSHWQQ-NH2
Summary of the method: as §1

BC2T A6K = molecular target: T13, BC2T A6K
T13 construct: positional scanning library member
T13 peptide: Ac-PDRKAKVSHWQQ-NH2
Summary of the method: as §1

BC2T A5P = molecular target: T14, BC2T A5P
T14 construct: positional scanning library member
T14 peptide: Ac-PDRKPAVSHWQQ-NH2
Summary of the method: as §1

BC2T R3W = molecular target: T15, BC2T R3W
T15 construct: positional scanning library member
T15 peptide: Ac-PDWKAAVSHWQQ-NH2
Summary of the method: as §1

BC2T P1Q = molecular target: T16, BC2T P1Q
T16 construct: positional scanning library member
T16 peptide: Ac-QDRKAAVSHWQQ-NH2
Summary of the method: as §1

BC2T V7E = molecular target: T17, BC2T V7E
T17 construct: positional scanning library member
T17 peptide: Ac-PDRKAAESHWQQ-NH2
Summary of the method: as §1

BC2T K4Y = molecular target: T18, BC2T K4Y
T18 construct: positional scanning library member
T18 peptide: Ac-PDRYAAVSHWQQ-NH2
Summary of the method: as §1

BC2T K4C(Abu) = molecular target: T19, BC2T K4C(Abu) (not fully specified (residue 4))
T19 construct: positional scanning library member
T19 peptide: Ac-PDRCAAVSHWQQ-NH2
Summary of the method: as §1

BC2T V7D = molecular target: T20, BC2T V7D
T20 construct: positional scanning library member
T20 peptide: Ac-PDRKAADSHWQQ-NH2
Summary of the method: as §1

BC2T W10E = molecular target: T21, BC2T W10E
T21 construct: positional scanning library member
T21 peptide: Ac-PDRKAAVSHEQQ-NH2
Summary of the method: as §1

B1: BC2-NbR106E (VHH)
VHH: QVQLVESGGGLVQPGGSLTLSCTASGFTLDHYDIGWFRQAPGKEREGVSCINNSDDDTYYADSVKGRFTIFMDNAKDTVYLQMNSLKPEDTAIYYCAEARGCKRGEYEYDFWGQGTQVTVSS
notes: headlock mutant of BC2-Nb; immobilised on beads in this assay
- ratio (BC2T P1Y): 0.2
- ratio (BC2T V7T): 0.2
- ratio (BC2T A6F): 1
- ratio (BC2T K4D): 1
- ratio (BC2T P1K): 0.3
- ratio (BC2T R3C(Abu)): 0.9
- ratio (BC2T A6D): 1
- ratio (BC2T A6R): 0.7
- ratio (BC2T P1S): 0.4
- ratio (BC2T D2P): 0.8
- ratio (BC2T A6W): 1
- ratio (BC2T A5E): 0.8
- ratio (BC2T A6K): 0.9
- ratio (BC2T A5P): 0.2
- ratio (BC2T R3W): 1.1
- ratio (BC2T P1Q): 0.6
- ratio (BC2T V7E): 0.9
- ratio (BC2T K4Y): 0.3
- ratio (BC2T K4C(Abu)): 0.2
- ratio (BC2T V7D): 0.9

B2: BC2 nanobody (VHH)
VHH: B1 VHH with E106R
notes: immobilised on beads in this assay; also called BC2-Nb; BC2 nanotrap (immobilised)
- ratio (BC2T W10E): 1.1
